Results published in paper PMC7078487.

Target: soluble FixL (FixL_(118–495), missing the transmembrane domain) (Caulobacter crescentus)

accumulation of autophosphorylated FixL ([γ-32P]ATP, 30-minute time course; FixL 5 μM, FixJ(D55A) 20 μM, FixT 80 μM): 3 fold
Substance: Caulobacter crescentus FixT (natural protein)
